Molecular target: rRANKL (Cambrex) (UniProt O14788)
Assay: cell-based or functional assay

Sequence of UniProt O14788 (O14788 140-317 limits assumed): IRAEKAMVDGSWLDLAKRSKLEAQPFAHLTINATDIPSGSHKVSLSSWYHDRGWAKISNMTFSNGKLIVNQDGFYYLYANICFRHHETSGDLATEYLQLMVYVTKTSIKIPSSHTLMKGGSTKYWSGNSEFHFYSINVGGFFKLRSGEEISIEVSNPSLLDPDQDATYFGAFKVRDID

rRANKL-induced OC differentiation in OCP-RASF coculture, αvβ3 integrin cELISA luminescent readout (ng/mL rRANKL inhibited by 22 ng/mL rOPG): < 7.5
rRANKL-induced OC differentiation in OCP-RASF coculture, αvβ3 integrin cELISA luminescent readout (ng/mL rRANKL inhibited by 66 ng/mL rOPG): < 15
Substance: Recombinant OPG (R&D cat185-05-025) (from UniProt O00300 22-401) (receptor)
